Measured values reported in patent US20070072210A1 (published 2007).

B1: GST-tagged BRCA1 BRCT domains, breast cancer-associated mutant Met1775Arg (other, UniProt P38398 1560-1863, looked up)
chain: GTPYLESGISLFSDDPESDPSEDRAPESARVGNIPSSTSALKVPQLKVAESAQSPAAAHTTDTAGYNAMEESVSREKPELTASTERVNKRMSMVVSGLTPEEFMLVYKFARKHHITLTNLITEETTHVVMKTDAEFVCERTLKYFLGIAGGKWVVSYFWVTQSIKERKMLNEHDFEVRGDVVNGRNHQGPKRARESQDRKIFRGLEICCYGPFTNRPTDQLEWMVQLCGASVVKELSSFTLGTGVHPIVVVQPDAWTEDNGFHAIGQMCEAPVVTREWVLDSVALYQCQELDTYLIPQIPHSHY
notes: domain: BRCT domains; also called M1775R; not shown: GST tag
B2: FLAG-tagged BAAT1 (full length) (other)
chain: MDPECAQLLPALCAVLVDPGQPVADDTCLEKLLDWFKTVTEGESSVVLLQEHPCLVELLSHVLKVQDLSSGVLSFSLRLAGTFAAQENCFQYLQQGELLPGLFGEPGPLGRATWAVPTVRSGWIQGLRSLAQHPSALRFLADHGAVDTIFSLQGDSSLFVASAASQLLVHVLALSMRGGAEGQPCLPGGDWPACAQKIMDHVEESLCSAATPKVTQALNVLTTTFGRCQSPWTEALWVRLSPRVACLLERDPIPAAHSFVDLLLCVARSPVFSSSDGSLWETVARALSCLGPTHMGPLALGILKLEHCPQALRTQAFQVLLQPLACVLKATVQAPGPPGLLDGTADDATTVDTLLASKSSCAGLLCRTLAHLEELQPLPQRPSPWPQASLLGATVTVLRLCDGSAAPASSVGGHLCGTLAGCVRVQRAALDFLGTLSQGTGPQELVTQALAVLLECLESPGSSPTVLKKAFQATLRWLLSSPKTPGCSDLGPLIPQFLRELFPVLQKRLCHPCWEVRDSALEFLTQLSRHWGGQADFRCALLASEVPQLALQLLQDPESYVRASAVTAMGQLSSQGLHAPTSPEHAEARQSLFLELLHILSVDSEGFPRRAVMQVFTEWLRDGHADAAQDTEQFVATVLQAASRDLDWEVRAQGLELALVFLGQTLGPPRTHCPYAVALPEVAPAQPLTEALRALCHVGLFDFAFCALFDCDRPVAQKSCDLLLFLRDKIASYSSLREARGSPNTASAEATLPRWRAGEQAQPPGDQEPEAVLAMLRSLDLEGLRSTLAESSDHVEKSPQSLLQDMLATGGFLQGDEADCY
notes: Transiently expressed in 293T cells; the clone used was IMAGE BC015632; also called FLAG-BAAT1; not shown: FLAG tag
B3: BAAT1 (endogenous, from human cell lysates) (other)
chain: B2 chain
notes: Endogenous cellular protein detected with the anti-BAAT1 antibody; also called endogenous BAAT1; hBAAT1
B4: FLAG-tagged C-terminal BAAT1 (amino acids 176-821) (other)
chain: MRGGAEGQPCLPGGDWPACAQKIMDHVEESLCSAATPKVTQALNVLTTTFGRCQSPWTEALWVRLSPRVACLLERDPIPAAHSFVDLLLCVARSPVFSSSDGSLWETVARALSCLGPTHMGPLALGILKLEHCPQALRTQAFQVLLQPLACVLKATVQAPGPPGLLDGTADDATTVDTLLASKSSCAGLLCRTLAHLEELQPLPQRPSPWPQASLLGATVTVLRLCDGSAAPASSVGGHLCGTLAGCVRVQRAALDFLGTLSQGTGPQELVTQALAVLLECLESPGSSPTVLKKAFQATLRWLLSSPKTPGCSDLGPLIPQFLRELFPVLQKRLCHPCWEVRDSALEFLTQLSRHWGGQADFRCALLASEVPQLALQLLQDPESYVRASAVTAMGQLSSQGLHAPTSPEHAEARQSLFLELLHILSVDSEGFPRRAVMQVFTEWLRDGHADAAQDTEQFVATVLQAASRDLDWEVRAQGLELALVFLGQTLGPPRTHCPYAVALPEVAPAQPLTEALRALCHVGLFDFAFCALFDCDRPVAQKSCDLLLFLRDKIASYSSLREARGSPNTASAEATLPRWRAGEQAQPPGDQEPEAVLAMLRSLDLEGLRSTLAESSDHVEKSPQSLLQDMLATGGFLQGDEADCY
notes: Expressed in 293T cells; co-precipitated with BRCA1 by the anti BRCA1 21A1 antibody and blotted with anti FLAG; not shown: FLAG tag

Assays:
[1] = target: B2; assay: GST pulldown from co-transfected 293T cells, anti FLAG blot
Description: (§1) GST-BRCA1 fragments were precipitated with GSH beads and samples were immunoblotted with anti FLAG antibody. […] After immunoprecipitation with anti BRCA1 21A1 antibody, samples were immunoblotted with FLAG antibody. […] NS: non-specific signals. […] Two different anti BRCA1 antibodies (C-20 and 21A1) and anti ATM antibodies (N-17 and 2C1) were used for the assay.
(§2) Co-Immunoprecipitation and GST Pull-Down Assays: HeLa or NMEs cells were lysed for 30 min in 500 ml of lysis buffer (50 mM Tris-HCl pH 7.5, 100 mM NaCl, 0.5% NP-40, 0.5% DOC, 5 mM EDTA, and protease inhibitors: 100 mg/ml PMSF, 2 mg/ml Aprotinin, 2 mg/ml Leupeptin). One milligram of total cell lysates was incubated with 10 mg/ml of ethidium bromide and the primary antibody for 3 h followed by incubation with either Protein A or Protein G agarose beads overnight at 4° C. The immunocomplexes were separated on SDS-PAGE gels and visualized by Western blotting. […] After pulldown with GSH beads, samples were separated in SDS-polyacrylamide gel and visualized by Western blotting.

[2] = target: T1, BRCA1 (endogenous, from human cell lysates) (human, UniProt P38398 1-1863); assay: immunoprecipitation with anti BRCA1 21A1 from 293T cells, anti FLAG blot
T1 construct: Endogenous cellular protein immunoprecipitated with anti BRCA1 antibodies C-20 or 21A1; also called breast cancer susceptibility gene 1 protein; endogenous BRCA1
Source text: as §1

[3] = target: T1, BRCA1 (endogenous, from human cell …); assay: co-immunoprecipitation of endogenous proteins from HeLa cells
Description: as §1, §2

| binding result [2] | Binder | also measured |
| --- | --- | --- |
|  | B1 | binding result [1]: no binding |
| binds | B2 |  |
|  | B3 | binding result [3]: binds |
| binds | B4 |  |
